Test results: US20210206842A1 (NATIONAL RESEARCH COUNCIL OF CANADA, published 2021)

Assays:
[1] = target: T1, FC5DIE3IR recombinant protein; assay: SPR (Biacore T200), VHH flowed over immobilized FC5DIE3IR, steady state fit, 25 C
T1 construct: Made in CHO-3E7 cells; also called FC5DIE31R; FC5DIE3R
Excerpt: (§1) Surface Plasmon Resonance for VHH antibodies. […] Monomeric VHH fractions were collected and protein concentration determined by measuring A280 measurement. Using a Biacore T200 instrument (GE Healthcare), approximately 500-1000 RUs of FC5DIE3IR, FC5 and an irrelevant VHH (2A3-H4) were immobilized on a CM5 Series S sensor chip (GE Healthcare) at pH 4.0 using standard amine coupling according to the manufacturer's instructions (GE Healthcare). […] Surfaces were regenerated by washing with a 120 s pulse of 10 mM glycine pH 1.5. Data were analyzed with Biacore T200 Software v 3.0 and affinities determined using steady state binding or a 1:1 binding model.
(§2) Surface Plasmon Resonance (SPR).

VHH FC5 [2] = target: T2, VHH FC5; assay: phage ELISA of immune-library colonies, phage supernatant on coated FC5DIE3IR or FC5, anti-M13-HRP, TMB
T2 construct: put together from its FR and CDR entries; also called FC5-VHH; FC5 control

human Nav1.7 polypeptide = human Nav1.7 polypeptide (human, UniProt Q15858 1-1988); assay: cell-based or functional assay
[3] = target: T1, FC5DIE3IR recombinant protein; assay: phage ELISA, phage supernatant on coated FC5DIE3IR or PBS wells, anti-M13-HRP, TMB
Method: FIG. 25A Phages were rescued from individual colonies, selected from the fourth round of panning and grown overnight at 37° C. Wells of a Nunc microtiter plate were coated with FC5DIE3IR and FC5 proteins at 5 μg/ml in PBS. […] Binding was detected with TMB substrate and A450 was measured using an ELISA plate reader.
Additional rounds (up to 3) of panning were performed by coating the ELISA plate with the same proteins and using the amplified phages after each round of panning as described above. After four rounds of panning, 77 randomly picked colonies were grown and subjected to monoclonal phage ELISA screening as described previously (Arbabi-Ghahroudi et al., 2009) except that 5 μg/ml of FC5DIE3IR and FC5 VHH (the negative control) were coated onto a microtiter plate. All positive clones specifically binding to FC5DIE3IR were sequenced and unique VHH sequences were selected for sub-cloning, large-scale expression, and purification.

VHH FC5 [4] = target: T2, VHH FC5; assay: ELISA, hybridoma supernatant on coated purified FC5-VHH
Method: (§3) Screening. Hybridoma supernatants were screened by ELISA to detect specific binders. To this end, 96-well half-area plates (Costar #3690) were coated with 25 μl of FC5DIE3IR or FC5-VHH or FC5-hFc-1X0 at 5 μg/ml in PBS and incubated overnight at 4° C. Microplates were washed 3 times with PBS, blocked with PBS-BSA 1%, and 25 μl of hybridoma supernatants were added and incubated at 37° C., 5% CO₂ for 2 hours. […] After 4 washes with PBS-Tween 20 0.05%, 25 μl of a 1 mg/ml pNPP substrate solution was added and further incubated for one hour at 37° C.

VHH FC5 [5] = target: T2, VHH FC5; assay: SPR, single cycle kinetics, Fc-captured mAb, FC5 flowed, 25 C
Method: HBS-EP running buffer used for SPR experiments. […] Test binding experiments of FC5 control and FC5DIE3IR involved flowing 1 μM concentrations of SEC-pure material over the mAb surface at a flow rate of 30 μl/min for 5 min. Surfaces could be regenerated using 10 mM glycine, pH 1.7, with a 120 sec pulse at 20 μl/min. All SPR experiments were evaluated with Biacore T200 Software v 3.0. […] Regeneration conditions were the same as above. Data were fit to a 1:1 binding model and analyzed using the Biacore T200 Software v3.0.

peptide #2a (20 aa) = target: T3, peptide #2a (20 aa) (human); assay: ELISA on coated P2a, mAb at the dilutions 1:1000, 1:5000 and 1:10000, Abs 450nm
T3 construct: Custom-synthesized (Biomatik); also called pep #2a; P2a
T3 peptide: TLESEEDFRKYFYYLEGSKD
Method: (§4) The peptides were custom-synthesized (Biomatik) and tested for antibody binding by ELISA. […] The wells were blocked with 1% BSA in TBS-T for 30 min and then incubated with 1:1000 dilution of anti-hNaᵥ1.7 mAb at room temperature (RT) for one hr.

peptide #2b (20 aa) = target: T4, peptide #2b (20 aa) (human); assay: ELISA on coated P2b, mAb at the dilutions 1:1000, 1:5000 and 1:10000, Abs 450nm
T4 construct: Custom-synthesized (Biomatik); also called pep #2b; P2b
T4 peptide: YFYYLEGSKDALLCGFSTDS
Method: as §4

peptide #2 (30 aa) = target: T5, peptide #2 (30 aa) (human); assay: ELISA on coated peptide or FC5DIE3IR, mAb detected with HRP anti-mouse Fc, Abs 450nm
T5 construct: Custom-synthesized (Biomatik); also called pep #2; P2
T5 peptide: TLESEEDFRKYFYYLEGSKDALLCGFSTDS
Method: as §4

peptide #3 (30 aa) = target: T6, peptide #3 (30 aa) (human); assay: as above
T6 construct: Custom-synthesized (Biomatik); also called pep #3; P3
Method: as §4

peptide #40a (40 aa) = target: T7, peptide #40a (40 aa) (human); assay: as above
T7 construct: Custom-synthesized (Biomatik); also called pep #40a; P40a
T7 peptide: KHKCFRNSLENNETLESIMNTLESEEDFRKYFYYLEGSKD
Method: as §4

[6] = target: T1, FC5DIE3IR recombinant protein; assay: ELISA on coated FC5DIE3IR, serial dilutions of purified mAb; fit One site - Specific binding with Hill slope
Method: as §3
(§5) Evaluation of apparent affinity in ELISA. Purified antibodies were assessed for their binding activity by ELISA in a dose-dependent binding curve. Serial 1/3 dilutions of purified mAbs starting at 120 nM were applied onto wells and ELISA was performed as described above (screening section). The data were analyzed with GraphPad Prism software using one-site specific binding-with Hill slope non-linear regression curve fit model to determine Bₘₐₓ (maximum specific binding) and Kdₐₚₚ (concentration needed to achieve a half-maximum binding at equilibrium) for each mAb tested.

[7] = target: T1, FC5DIE3IR recombinant protein; assay: ELISA on coated FC5DIE3IR, serial dilutions of purified mAb, OD 405 nm; fit One site - Specific binding with Hill slope; apparent Kd in the unit of the concentration axis (nM), the table itself prints no unit
Method: as §3, §5

[8] = target: T1, FC5DIE3IR recombinant protein; assay: SPR (Biacore T200), single cycle kinetics, VHH flowed over immobilized FC5DIE3IR, 25 C
Excerpt: as §1, §2

VHH FC5 [9] = target: T2, VHH FC5; assay: phage ELISA of immune-library colonies, phage supernatant on coated FC5DIE3IR or FC5, anti-M13-HRP, TMB; remark: listed apart in the source

T2 sequence (VHH, as listed by the source): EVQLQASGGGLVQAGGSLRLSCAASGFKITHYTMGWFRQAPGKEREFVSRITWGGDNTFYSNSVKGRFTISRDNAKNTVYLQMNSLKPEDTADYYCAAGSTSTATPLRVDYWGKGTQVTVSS
T6 sequence (peptide, as listed by the source): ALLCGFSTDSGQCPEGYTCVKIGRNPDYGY

B1: VHH DI-4 (VHH)
VHH: QVQLVESGGGLVQPGGSLRLSCAASGFTFSNYWMYWVRQAPGKGLERVSSIYISGGNTYYADSVKGRFTISRDNAKNTLYLQMNSLKSEDTAVYYCVKGDTFGGMDYWGKGTQVTVSS
notes: From the FC5DIE3IR llama immune library; soluble tagged monomer in SPR; not shown: cmyc and His6 tags at the C-terminus
[1]
  Kd: 2250 nM
VHH FC5 [2]
  binding result: no binding

B2: VHH DI-C (VHH)
VHH: QVKLEESGGGLVQPGESLRLSCVGSGFNFRIQAMAWFRQAPGKEREFVASISGSGATTDHADSVKGRFAISKDNARDTMYLQMNNLKPEDTAVYYCYAISQHVPPYHYWGQGTQVTVSS
notes: From the naive LAC-M library; soluble tagged monomer in protein ELISA and patch clamp; also called clone C; not shown: 6xHis and c-Myc tags on the soluble monomer
Human Nav1.7 polypeptide
  reduction of the amplitude of the Nav1.7 currents at 1 µM: 0.46%
[3]
  binding result: binds

B3: anti-hNav1.7 mAb 1B6 (antibody, V domains shown)
VH: QVQLKESGPGLVAPSQSLSITCTVSGFSLSRYNVHWVRQPPGKGLEWLGMIWGGGSTDYNSALKSRLSISKDNSKSQVFLKMNSLQTDDTAMYYCARNGANWDWFAYWGQGTLVTVSA
VL: not shown
notes: also called IB6; F236-1B6
VHH FC5 [4]
  ELISA signal (OD 405 nm): 0.028 OD 405 nm
VHH FC5 [5]
  binding result: no binding
Peptide #2a (20 aa)
  binding result: no binding (tested: 1:1000 dilution)
Peptide #2b (20 aa)
  binding result: no binding (tested: 1:1000 dilution)
Peptide #2 (30 aa)
  binding result: binds
Peptide #3 (30 aa)
  binding result: no binding
Peptide #40a (40 aa)
  binding result: binds
[6]
  Bmax: 1.07 OD405 nm
[7]
  Kd: 1.33 nM

B4: VHH DI-B (VHH)
VHH: QVKLEESGGGLVPPGESLRLTCAATGQTASVYEMAWFRRAPEKEQVYVASINWRDGDTQYHNSVKGRFIISRDNAKNTVFLQMNSLTPEDTAIYYCAARKELAGYDYWGQGTQVTVSS
notes: From the naive LAC-M library; soluble tagged monomer in protein ELISA and patch clamp; also called clone B; not shown: 6xHis and c-Myc tags on the soluble monomer
Human Nav1.7 polypeptide
  reduction of the amplitude of the Nav1.7 currents at 1 µM: 1.73%
[3]
  binding result: binds

B5: VHH DI-H (VHH)
VHH: QVKLEESGGGLVQAGESLRLSCVNSGSTFSIYAMGWYRQAPGKQRELVAAISSVGRTNYADSVKGRFTISRAGAKNTVYLHMNNLKPEDTAVYSCITYYQNAMYFGQGTQVTVSS
notes: From the naive LAC-M library; soluble tagged monomer in protein ELISA and patch clamp; also called clone H; not shown: 6xHis and c-Myc tags on the soluble monomer
Human Nav1.7 polypeptide
  reduction of the amplitude of the Nav1.7 currents at 1 µM: 1.72%
[3]
  binding result: binds

B6: VHH DI-28 (VHH)
VHH: QVQLVESGGGLVQAGGSLRLSCAASGRTFSSSGMGWFRQAPGKDRELVAGISWSGDSAYYANSVAGRFTISRDNINNTVYLQMNSLKPEDTAVYYCAARQGGRNYATSPREYDYWGQGTQVTVSS
notes: as for B1
[8]
  Kd: 4.44 nM
  koff: 0.00205 s⁻¹
  kon: 461000 M⁻¹ s⁻¹
VHH FC5 [9]
  binding result: no binding

B7: anti-hNav1.7 mAb 1H5 (antibody, V domains shown)
VH: EVKLVESGGGLVKPGGSLKLSCAASGFTFRSYAMSWVRQTPEKGLEWVASISSGGSTYYPDSVKGRFTISRDNAGNILYLQMSSLRSEDTAMYYCARGYDGYYERIWYYAMDYWGQGTSVTVSS
VL: DIVMTQSQKFMSTSVGDRVTVSCKASQNVGTIVAWYQQKPGQSPKALIYSASYRFSGVPDRFTGSGSGTDFTLTISNVQSEDLAEYFCQQYNTYPLTFGSGTKLEIK
VHH FC5 [4]
  ELISA signal (OD 405 nm): 0.042 OD 405 nm
VHH FC5 [5]
  binding result: no binding
Peptide #3 (30 aa)
  binding result: binds
Peptide #40a (40 aa)
  binding result: binds
[6]
  Bmax: 0.583 OD405 nm
[7]
  Kd: 1.6 nM

B8: VHH DI-E (VHH)
VHH: QVKLEESGGGLVQPGGSLRLSCAASEFTFSSSWGHWVRQAPGKGLKWVSSINSGGEGTYYADSVKGRFTISRDNGKNTLYLEMNSLKSEDTAVYYCTSASGAWGQGIQVTVSS
notes: From the naive LAC-M library; also called clone E; not shown: 6xHis and c-Myc tags on the soluble monomer
[3]
  binding result: binds

B9: VHH DI-A (VHH)
VHH: QVQLVESGGGLVQPGGSLRLSCAASGRTISSFTMGWFRQAPGAEREFVAAISRSGSSTVYAGSVKGRFTISRDNAKNTVYLQMNSLKPEDTAVYYCNAVITEPLYKTDDSYWGQGTQVTVSS
notes: From the naive LAC-M library; soluble tagged monomer in protein ELISA and patch clamp; also called clone A; not shown: 6xHis and c-Myc tags on the soluble monomer
Human Nav1.7 polypeptide
  reduction of the amplitude of the Nav1.7 currents at 1 µM: 2.73%
[3]
  binding result: binds
